From patent publication US20240343803A1 (SHANDONG SIMCERE BIOPHARMACEUTICAL, published 2024)

What was measured:
[1] = molecular target: T1, Fusion protein of extracellular domain of human TIGIT and His-tag (human TIGIT ECD-his) (human); test: BIAcore; KD ratio to TIGIT-CHI-002
T1 chain: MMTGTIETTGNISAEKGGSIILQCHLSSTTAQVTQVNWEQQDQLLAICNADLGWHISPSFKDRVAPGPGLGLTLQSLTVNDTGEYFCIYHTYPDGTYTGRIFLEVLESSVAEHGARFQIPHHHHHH

[2] = molecular target: T2, human PVRIG-his (AcroBiosystems, Cat NO. PVG-H52H4) (human, UniProt Q6DKI7 41-171, limits assumed); test: competition ELISA on coated human PVRIG-his; blocked ligand human PVRL2-mFc
T2 construct: treated as the same protein; also called human PVRIG-His protein; Human PVRIG-His, Acro C227P1-9ARF1-T4
T2 sequence (looked up): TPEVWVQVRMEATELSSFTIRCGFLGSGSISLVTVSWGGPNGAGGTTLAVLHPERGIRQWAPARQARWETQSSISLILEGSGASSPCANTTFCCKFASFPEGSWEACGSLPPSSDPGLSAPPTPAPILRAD
Procedure: The ELISA plate was pre-coated with 100 μL/well of 0.5 μg/mL human PVRIG-his protein (AcroBiosystems, Cat NO. PVG-H52H4). The tested anti-PVRIG antibodies were diluted from the highest concentration of 16 nM (two-fold concentration). The diluted antibodies were mixed with 18 ng/ml human PVRL2-mFc (AcroBiosystems, Cat NO. CD2-H5257) in equal volume, added into the plate (100 μL/well), and incubated with shaking at room temperature for 2.0 hours. […] A HRP substrate, TMB (Thermo, Cat NO. 34029) was added into wells after washing the plate again for color development. After adding a termination solution to terminate the reaction, the absorbance value was read by a microplate reader (MD i3×). An inhibiting curve was drawn with concentration of antibodies as the abscissa and the corresponding OD value as the ordinate. The IC50 value was calculated by using a Four Parameter Logistic Fit (GraphPadPrism9). The smaller the IC50 value, the stronger the ability of the antibodies inhibits the binding between PVRIG and PVRL2. The positive and negative controls are the same as in Example 8.
The methods refer to Example 11. The inhibiting activity of the humanized antibodies was normalized to the corresponding parental antibodies. If the percentage value is higher than 100%, the inhibiting effect of humanized antibodies is better than that of parental antibodies.

[3] = molecular target: T3, full-length human TIGIT on CHO-K1 cells (CHO-K1 human TIGIT) (human, UniProt Q495A1 22-244); test: FACS, low expression strain
T3 construct: NCBI XP_024309156.1; entry includes the signal peptide; also called high expression strain 1D2; medium expression strain 2D10
T3 sequence: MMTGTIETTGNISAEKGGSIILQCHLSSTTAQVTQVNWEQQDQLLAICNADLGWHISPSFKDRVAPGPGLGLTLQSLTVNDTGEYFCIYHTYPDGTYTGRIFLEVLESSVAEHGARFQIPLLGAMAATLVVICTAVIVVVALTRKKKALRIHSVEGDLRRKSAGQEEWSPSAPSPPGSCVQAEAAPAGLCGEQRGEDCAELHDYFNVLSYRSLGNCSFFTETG
Procedure: The collected cells were washed once with PBS (Hyclone, CAT #SH30256), resuspended to 2×10⁵/50 μL with 1% BSA-PBS. The antibodies were diluted to 80 nM with 1% BSA-PBS (diluted by 3-fold serial dilution for 12 concentration points). The 50 μL cells were then mixed with 50 μL diluted antibodies, and then incubated at 4° C. for 60 minutes. […] After washing twice with PBS, the cell samples were resuspended with 1% BSA-PBS, 100 μL/well and then analyzed by flow cytometry (BD, Canto II). […] [0298] (c) The effect of anti-TIGIT chimeric antibodies blocking the interaction between Bio-CD155-His and CHO-K1 human TIGIT high expression cell strains detected by FACS

[4] = molecular target: T4, human TIGIT ECD-his (fusion protein of extracellular domain of human TIGIT and His-tag) (human); test: BIAcore kinetics
T4 construct: entry includes the signal peptide, limits not readable here
T4 chain: T1 chain

[5] = molecular target: T3, full-length human TIGIT on CHO-K1 cells …; test: FACS, competition: Bio-CD155-His to CHO-K1 human TIGIT
Procedure: The collected cells were washed once with PBS (Hyclone, CAT #SH30256), resuspended to 2×10⁵/40 μL with 1% BSA-PBS. The antibodies were diluted to 210 nM with 1% BSA-PBS (diluted by 3-fold serial dilution for 12 concentration points). […] The 40 μL cells were then mixed with 40 μL diluted antibodies and 40 μL diluted Bio-CD155-His, and then incubated at 4° C. for 60 minutes. The cells were washed twice with PBS, resuspended with APC labeled streptavidin (dilution ratio 1:1700, Biolegend, 405243), 100 μL/well, and incubated at 4° C. for 40 minutes. The cell samples were washed twice with PBS, resuspended with 1% BSA-PBS, 100 μL/well and then analyzed by flow cytometry (BD, Canto II). […] [0300] (d) The effect of anti-TIGIT chimeric antibodies blocking the interaction between TIGIT ECD-mFc and CHO-K1 CD155 detected by FACS

[6] = molecular target: T1, Fusion protein of extracellular domain …; test: BIAcore; KD ratio to TIGIT-CHI-070

B1: TIGIT-002-H4L3 (antibody, V domains shown)
VH: EVQLQESGPGLVKPSETLSLTCAVSGYSITSDSWNWIRQPPGKKLEYIGYISYSGNTYYNPSLKSRVTISRDTSKNQFSLKLSSVTAADTAVYYCARLDFSNYGGAVDYWGQGTTVTVSS
VL: DIVMTQSPDSLAVSLGERATINCKASQNVRTAVAWYQQKPGQSPKLMIYSASYRYTGVPDRFSGSGSGTDFTLTISSLQAEDVAVYYCQQYYTTPWTFGGGTKVEIK
notes: Humanized anti-TIGIT antibody
**Q.** How did the “Fold change vs chimeric antibodies (KD)” value [1] turn out when B1 was run?
**A.** 1.26 fold

B2: PVRIG-A105 (VHH)
VHH: EVQLVESGGGLVQAGGSLRLSCAASGRTFDRHTMTWFRQAPGKEREFVATASRIPGDTYYSHSVKGRFTISRDNAKNTVYLQLNNLKPEDTAVYYCAATSAYCSEVDCYEKGSWYDNWGQGIQVTVSS
notes: tested as VHH-hinge-CH2-CH3 (human IgG1-Fc); not shown: human IgG1 hinge-CH2-CH3
**Q.** How did the “IC50 (read off the curve)” value [2] turn out when B2 was run?
**A.** ~700 pM

B3: RG6058-hIgG1 (antibody, V domains shown)
VH: EVQLQQSGPGLVKPSQTLSLTCAISGDSVSSNSAAWNWIRQSPSRGLEWLGKTYYRFKWYSDYAVSVKGRITINPDTSKNQFSLQLNSVTPEDTAVFYCTRESTTYDLLAGPFDYWGQGTLVTVSS
VL: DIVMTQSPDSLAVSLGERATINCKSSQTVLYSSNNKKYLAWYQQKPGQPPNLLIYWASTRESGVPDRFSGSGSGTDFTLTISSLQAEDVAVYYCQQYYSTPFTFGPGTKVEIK
notes: human IgG1 format by its name; also called Roche RG6058; control antibody RG6058
**Q.** Which EC50 [3] does the source give for B3 here?
**A.** 495 pM

**Q.** And the Kd [4]?
**A.** 163 pM

**Q.** And the koff [4]?
**A.** 0.000147 s⁻¹

**Q.** What about the kon [4] of the same binder?
**A.** 903000 M⁻¹ s⁻¹

**Q.** And the IC50 [5]?
**A.** 388 pM

B4: TIGIT-070-H1L1 (antibody, V domains shown)
VH: EVQLVQSGAEVKKPGASVKVSCKASGYTFTNYYMHWVRQAPGQRLEWMGRIDPDSGGSKYNEKFKSRVTITVDKSASTAYMELSSLRSEDTAVYYCAREGHYGFYSDYWGQGTTVTVSS
VL: DIQMTQSPSSLSASVGDRVTITCRVSENIYSYLAWYQQKPGKSPKLLIYNAKTLAEGVPSRFSGSGSGTDFTLTISSLQPEDFATYYCQHHYGNPLTFGPGTKVDIK
notes: Humanized anti-TIGIT antibody
**Q.** How did the “Fold change vs chimeric antibodies (KD)” value [6] turn out when B4 was run?
**A.** 0.59 fold
